Substitutions are numbered along the chain they refer to. Names may count otherwise.

To fix the notation:
B1: GLS3000 T31E one-arm antibody (antibody, human IgG1, kappa, L234A L235A, N297A, name in Kabat numbering)
heavy: QVQLVESGGGVVQPGRSLRLSCAASGFTFSNAWMHWVRQAPGKGLEWVAQIKAKSNNYATYYAESVKGRFTISRDDSKNSLYLQMNSLKTEDTAVYYCRYVHYGAYYGVDAWGQGTTVTVSSASTKGPSVFPLAPSSKSTSGGTAALGCLVKDYFPEPVTVSWNSGALTSGVHTFPAVLQSSGLYSLSSVVTVPSSSLGTQTYICNVNHKPSNTKVDKKVEPKSCDKTHTCPPCPAPEAAGGPSVFLFPPKPKDTLMISRTPEVTCVVVDVSHEDPEVKFNWYVDGVEVHNAKTKPREEQYASTYRVVSVLTVLHQDWLNGKEYKCKVSNKALPAPIEKTISKAKGQPREPQVYTLPPSRCELTKNQVSLSCAVKGFYPSDIAVEWESNGQPENNYKTTPPVLDSDGSFFLVSKLTVDKSRWQQGNVFSCSVMHEALHNHYTQKSLSLSPDYKDDDDK
chain: EPKSSDKTHTCPPCPAPELLGGPSVFLFPPKPKDTLMISRTPEVTCVVVDVSHEDPEVKFNWYVDGVEVHNAKTKPREEQYNSTYRVVSVLTVLHQDWLNGKEYKCKVSNKALPAPIEKTISKAKGQPREPQVCTLPPSRDELTKNQVSLWCLVKGFYPSDIAVEWESNGQPENNYKTTPPVLDSDGSFFLYSKLTVDKSRWQQGNVFSCSVMHEALHNRYTQKSLSLSP
light: DIVMTQSPLSLPVTPGEPASISCRSSQSLVHSNRNEYLHWYQQKPGQAPRLLIYKVSNRFSGVPDRFSGSGSGTDFTLKISRVEAEDVGVYYCGQGTQVPYTFGQGTKLEIKRTVAAPSVFIFPPSDEQLKSGTASVVCLLNNFYPREAKVQWKVDNALQSGNSQESVTEQDSKDSTYSLSSTLTLSKADYEKHKVYACEVTHQGLSSPVTKSFNRGEC
B2: GLS3000 V51D one-arm antibody (antibody, human IgG1, kappa, L234A L235A, N297A, name in Kabat numbering)
heavy: B1 heavy
chain: B1 chain
light: B1 light with E36T, V56D
B3: GLS3000 V51E one-arm antibody (antibody, human IgG1, kappa, L234A L235A, N297A, name in Kabat numbering)
heavy: B1 heavy
chain: B1 chain
light: B1 light with E36T, V56E
B4: GLS3000 V94D one-arm antibody (antibody, human IgG1, kappa, L234A L235A, N297A, name in Kabat numbering)
heavy: B1 heavy
chain: B1 chain
light: B1 light with E36T, V99D
B5: GLS3000 T92P one-arm antibody (antibody, human IgG1, kappa, L234A L235A, N297A, name in Kabat numbering)
heavy: B1 heavy
chain: B1 chain
light: B1 light with E36T, T97P
B6: GLS3000 T92Y one-arm antibody (antibody, human IgG1, kappa, L234A L235A, N297A, name in Kabat numbering)
heavy: B1 heavy
chain: B1 chain
light: B1 light with E36T, T97Y
B7: GLS3000 T31P one-arm antibody (antibody, human IgG1, kappa, L234A L235A, N297A, name in Kabat numbering)
heavy: B1 heavy
chain: B1 chain
light: B1 light with E36P
B8: GLS3000 V51I one-arm antibody (antibody, human IgG1, kappa, L234A L235A, N297A, name in Kabat numbering)
heavy: B1 heavy
chain: B1 chain
light: B1 light with E36T, V56I
B9: GLS3000 V51G one-arm antibody (antibody, human IgG1, kappa, L234A L235A, N297A, name in Kabat numbering)
heavy: B1 heavy
chain: B1 chain
light: B1 light with E36T, V56G
B10: GLS3000 T92E one-arm antibody (antibody, human IgG1, kappa, L234A L235A, N297A, name in Kabat numbering)
heavy: B1 heavy
chain: B1 chain
light: B1 light with E36T, T97E
B11: GLS3000 V51P one-arm antibody (antibody, human IgG1, kappa, L234A L235A, N297A, name in Kabat numbering)
heavy: B1 heavy
chain: B1 chain
light: B1 light with E36T, V56P
B12: GLS3000 T92D one-arm antibody (antibody, human IgG1, kappa, L234A L235A, N297A, name in Kabat numbering)
heavy: B1 heavy
chain: B1 chain
light: B1 light with E36T, T97D
B13: GLS3000 V27cI one-arm antibody (antibody, human IgG1, kappa, L234A L235A, N297A, name in Kabat numbering)
heavy: B1 heavy
chain: B1 chain
light: B1 light with V30I, E36T
B14: GLS3000 T92L one-arm antibody (antibody, human IgG1, kappa, L234A L235A, N297A, name in Kabat numbering)
heavy: B1 heavy
chain: B1 chain
light: B1 light with E36T, T97L
B15: GLS3000 V27cY one-arm antibody (antibody, human IgG1, kappa, L234A L235A, N297A, name in Kabat numbering)
heavy: B1 heavy
chain: B1 chain
light: B1 light with V30Y, E36T
B16: GLS3000 T92I one-arm antibody (antibody, human IgG1, kappa, L234A L235A, N297A, name in Kabat numbering)
heavy: B1 heavy
chain: B1 chain
light: B1 light with E36T, T97I
B17: GLS3000 T31I one-arm antibody (antibody, human IgG1, kappa, L234A L235A, N297A, name in Kabat numbering)
heavy: B1 heavy
chain: B1 chain
light: B1 light with E36I
B18: GLS3000 V94E one-arm antibody (antibody, human IgG1, kappa, L234A L235A, N297A, name in Kabat numbering)
heavy: B1 heavy
chain: B1 chain
light: B1 light with E36T, V99E
B19: GLS3000 V27cE one-arm antibody (antibody, human IgG1, kappa, L234A L235A, N297A, name in Kabat numbering)
heavy: B1 heavy
chain: B1 chain
light: B1 light with V30E, E36T
B20: GLS3000 T92S one-arm antibody (antibody, human IgG1, kappa, L234A L235A, N297A, name in Kabat numbering)
heavy: B1 heavy
chain: B1 chain
light: B1 light with E36T, T97S
B21: GLS3000 V94F one-arm antibody (antibody, human IgG1, kappa, L234A L235A, N297A, name in Kabat numbering)
heavy: B1 heavy
chain: B1 chain
light: B1 light with E36T, V99F
B22: GLS3000 V27cS one-arm antibody (antibody, human IgG1, kappa, L234A L235A, N297A, name in Kabat numbering)
heavy: B1 heavy
chain: B1 chain
light: B1 light with V30S, E36T
B23: GLS3000 T31N one-arm antibody (antibody, human IgG1, kappa, L234A L235A, N297A, name in Kabat numbering)
heavy: B1 heavy
chain: B1 chain
light: B1 light with E36N
B24: GLS3000 V27cL one-arm antibody (antibody, human IgG1, kappa, L234A L235A, N297A, name in Kabat numbering)
heavy: B1 heavy
chain: B1 chain
light: B1 light with V30L, E36T
B25: GLS3000 T92A one-arm antibody (antibody, human IgG1, kappa, L234A L235A, N297A, name in Kabat numbering)
heavy: B1 heavy
chain: B1 chain
light: B1 light with E36T, T97A
B26: GLS3000 V27cP one-arm antibody (antibody, human IgG1, kappa, L234A L235A, N297A, name in Kabat numbering)
heavy: B1 heavy
chain: B1 chain
light: B1 light with V30P, E36T
B27: GLS3000 V94A one-arm antibody (antibody, human IgG1, kappa, L234A L235A, N297A, name in Kabat numbering)
heavy: B1 heavy
chain: B1 chain
light: B1 light with E36T, V99A
B28: GLS3000 T97P one-arm antibody (antibody, human IgG1, kappa, L234A L235A, N297A, name in Kabat numbering)
heavy: B1 heavy
chain: B1 chain
light: B1 light with E36T, T102P
B29: GLS3000 V27cD one-arm antibody (antibody, human IgG1, kappa, L234A L235A, N297A, name in Kabat numbering)
heavy: B1 heavy
chain: B1 chain
light: B1 light with V30D, E36T
B30: GLS3000 T31K one-arm antibody (antibody, human IgG1, kappa, L234A L235A, N297A, name in Kabat numbering)
heavy: B1 heavy
chain: B1 chain
light: B1 light with E36K
B31: GLS3000 V94G one-arm antibody (antibody, human IgG1, kappa, L234A L235A, N297A, name in Kabat numbering)
heavy: B1 heavy
chain: B1 chain
light: B1 light with E36T, V99G
B32: GLS3000 V94H one-arm antibody (antibody, human IgG1, kappa, L234A L235A, N297A, name in Kabat numbering)
heavy: B1 heavy
chain: B1 chain
light: B1 light with E36T, V99H
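Further: Light-chain single-residue variant antibodies injected over amine-coupled CD3ε homodimer on a CM4 chip at 25 °C, bound amount divided by that of the GLS3000-containing antibody.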

The target of this test is T1, CD3ε homodimer protein (human, UniProt P07766 23-126, limits assumed).
T1 construct: also called CD3 (CD3ε)
T1 sequence (P07766 23-126 limits assumed): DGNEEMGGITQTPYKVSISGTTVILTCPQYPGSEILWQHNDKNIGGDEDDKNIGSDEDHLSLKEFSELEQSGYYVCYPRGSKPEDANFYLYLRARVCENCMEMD
Put plainly: SPR Biacore T200, CD3ε homodimer on chip. (In general: SPR reads the build-up and loss of mass on a sensor chip optically.)
For the molecule B1, the “ratio of amount bound vs unaltered GLS3000” value (“ratio of amount bound” below) turned out to be 0.49.
Next, B2: 0.33; B3: 0.64; B4: 0.89.
Next, B5: 0.26.
In the case of B6, the “ratio of amount bound” value amounted to 0.33.
Turning to B7, the “ratio of amount bound” value is 0.31.
Consider B8, for which the “ratio of amount bound” value was 0.81.
Take B9: the “ratio of amount bound” value was determined as 0.84.
For B10, the “ratio of amount bound” value is 0.17.
B11: the “ratio of amount bound” value is 0.32.
Next, B12: 0.18.
With B13, the “ratio of amount bound” value came to 0.96.
As for B14, the “ratio of amount bound” value worked out at 0.42.
Regarding B15, the “ratio of amount bound” value is 0.77.
Next, B16: 0.34; B17: 0.97; B18: 0.5.
For B19, the “ratio of amount bound” value amounted to 0.61.
As to B20, the “ratio of amount bound” value came out at 0.96.
As for B21, the “ratio of amount bound” value was found to be 0.71.
B22: the “ratio of amount bound” value was 0.51.
As to B23, the “ratio of amount bound” value was found to be 0.32.
Take B24: the “ratio of amount bound” value was 0.84.
Turning to B25, the “ratio of amount bound” value was 0.63.
Regarding B26, the “ratio of amount bound” value came out at 0.3.
With B27, the “ratio of amount bound” value came out at 1.05.
As to B28, the “ratio of amount bound” value was determined as 0.31.
As to B29, the “ratio of amount bound” value was 0.32.
Consider B30, for which the “ratio of amount bound” value came out at 1.04.
For B31, the “ratio of amount bound” value was found to be 0.48.
Next, B32: 0.78.

For the origin of these results see patent publication US20260049138A1 (Chugai, published 2026).
